Measured values reported in the supplement of paper PMC9233669.
Fewer inactive variants are shown than the library holds.

How the values were obtained:
biotinyl-Phe-oxazolone = assay: self-aminoacylation, catalytic enhancement (BFO) (fold over background); higher = more active; k-Seq, kA / k0A0; sequences stand for … in GGGAAUGGAUCCACAUCUACGAAUUC…UUCACUGCAGACUUGACGAAGCUG
How it was run: (§1)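 Mutagenized RNA pools with a 21-nt variable region (0.43 μM) reacted with each biotinyl-aminoacyl-oxazolone at 2–1250 μM. Reactions ran in 50 μL HEPES/NaCl/KCl/MgCl2/CaCl2 buffer with 5% acetonitrile, pH 6.9–7.0, for 90 minutes at room temperature. Streptavidin-captured RNA was quantified by triplicate qPCR and Illumina sequencing, and per-sequence fraction reacted was fit to a pseudo-first-order model with 1000 bootstraps. Catalytic enhancement is median kA divided by the uncatalyzed rate, the low-activity peak of a bimodal Gaussian fit.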

biotinyl-Ile-oxazolone = assay: self-aminoacylation, catalytic enhancement (BIO) (fold over background); higher = more active; k-Seq, kA / k0A0; sequences stand for … in GGGAAUGGAUCCACAUCUACGAAUUC…UUCACUGCAGACUUGACGAAGCUG
How it was run: as §1

biotinyl-Met-oxazolone = assay: self-aminoacylation, catalytic enhancement (BMO) (fold over background); higher = more active; k-Seq, kA / k0A0; sequences stand for … in GGGAAUGGAUCCACAUCUACGAAUUC…UUCACUGCAGACUUGACGAAGCUG
How it was run: as §1

biotinyl-Val-oxazolone = assay: self-aminoacylation, catalytic enhancement (BVO) (fold over background); higher = more active; k-Seq, kA / k0A0; sequences stand for … in GGGAAUGGAUCCACAUCUACGAAUUC…UUCACUGCAGACUUGACGAAGCUG
How it was run: as §1

biotinyl-Leu-oxazolone = assay: self-aminoacylation, catalytic enhancement (BLO) (fold over background); higher = more active; k-Seq, kA / k0A0; sequences stand for … in GGGAAUGGAUCCACAUCUACGAAUUC…UUCACUGCAGACUUGACGAAGCUG
How it was run: as §1

biotinyl-Trp-oxazolone = assay: self-aminoacylation, catalytic enhancement (BWO) (fold over background); higher = more active; k-Seq, kA / k0A0; sequences stand for … in GGGAAUGGAUCCACAUCUACGAAUUC…UUCACUGCAGACUUGACGAAGCUG
How it was run: as §1

Sequence	self-aminoacylation (biotinyl-Phe-oxazolone)	self-aminoacylation (biotinyl-Ile-oxazolone)	self-aminoacylation (biotinyl-Met-oxazolone)	self-aminoacylation (biotinyl-Val-oxazolone)	self-aminoacylation (biotinyl-Leu-oxazolone)	self-aminoacylation (biotinyl-Trp-oxazolone)
AUGCUUCAAACAAUCGGUCUG [Fam1A.1 aminoacylation ribozyme variant]	129	2.25	2.1	1.99	3.36	50.6
AUGGACCUAGGUCAUCGGGUG [Fam2.2 aminoacylation ribozyme variant]	22	3.46	3.77	3.04	4.55	4.36
AUGGCCCUGGUCAUCGAGUGA [Fam2.1 aminoacylation ribozyme variant]	729	27.1	82.9	29.1	84.6	76.5
AUGUACCUAGGUCAUCGGGUG [Fam2.2 aminoacylation ribozyme variant]	34	3.62	5.49	3.08	5.37	5.8
AUGUCCCUGGUCAUCGAGUGA [Fam2.1 aminoacylation ribozyme variant]	246	15.1	44.2	17.2	40.9	41.4
AUGUCUGCUAAUAGUCGCAAG [Fam3.1 aminoacylation ribozyme variant]	35.5	1.91	2.25	1.56	1.74	9.53
AUGUUAGCUAAUAGUCGCAAG [Fam3.1 aminoacylation ribozyme variant]	1.84	1.57	1.45	1.29	1.39	0.993
AUGUUCGCUAAUAGUCGCAAG [Fam3.1 aminoacylation ribozyme variant]	3.79	1.58	1.65	1.55	1.14	1.67
AUGUUUACUAAUAGUCGCAAG [Fam3.1 aminoacylation ribozyme variant]	1.92	1.67	1.61	1.7	1.52	2.07
AUGUUUGCCAAUAGUCGCAAG [Fam3.1 aminoacylation ribozyme variant]	1.82	1.53	1.64	1.33	1.14	1.15
AUGUUUGCUAAGAGUCGCAAG [Fam3.1 aminoacylation ribozyme variant]	2.16	1.35	1.35	1.28	1.39	1.68
AUGUUUGCUAAUAGUCGCAAC [Fam3.1 aminoacylation ribozyme variant]	1.82	1.15	1.05	1.05	1.04	1.08
AUGUUUGCUAAUAGUCGCGAG [Fam3.1 aminoacylation ribozyme variant]	3.75	1.65	1.57	1.65	1.48	2.18
AUGUUUGCUAAUCGUCGCAAG [Fam3.1 aminoacylation ribozyme variant]	1.59	1.32	1.13	1.44	1.32	1.01
AUGUUUGCUAAUUGUCGCAAG [Fam3.1 aminoacylation ribozyme variant]	1.81	1.38	1.41	1.17	1.64	2.13
AUGUUUGCUAGUAGUCGCAAG [Fam3.1 aminoacylation ribozyme variant]	1.15	0.957	1.15	0.827	0.911	0.975
AUUAAACUAGGUCAUCGGGUG [Fam2.2 aminoacylation ribozyme variant]	23	2.89	3.79	3.11	5.02	4.43
AUUAACCCGGUCAUCGAGUGA [Fam2.1 aminoacylation ribozyme variant]	54.5	3.71	7.21	4.15	7.87	9.1
AUUAACCGGGUCAUCGAGUGA [Fam2.1 aminoacylation ribozyme variant]	36	3.38	6.03	3.29	7.07	7.04
AUUAACCUAGGUCAUCGAGUG [Fam2.2 aminoacylation ribozyme variant]	17.9	7.02	8.83	5.78	11.7	4.39
AUUAACCUAGGUCGUCGGGUG [Fam2.2 aminoacylation ribozyme variant]	3.08	1.38	1.7	1.42	2.01	1.42
AUUAACCUAGGUGAUCGGGUG [Fam2.2 aminoacylation ribozyme variant]	8.95	2.31	3.25	2.1	3.63	2.9
AUUAACCUGGACAUCGAGUGA [Fam2.1 aminoacylation ribozyme variant]	32.9	2.99	6.63	2.89	6.88	8.58
AUUAACCUGGGCAUCGAGUGA [Fam2.1 aminoacylation ribozyme variant]	20.5	2.63	4.66	2.6	5.72	5.8
AUUAACCUGGUAAUCGAGUGA [Fam2.1 aminoacylation ribozyme variant]	52.9	3.86	8.82	4.05	9.73	11.3
AUUAACCUGGUCAUAGAGUGA [Fam2.1 aminoacylation ribozyme variant]	17.4	2.31	4.3	2.55	4.78	6.17

Sequence	self-aminoacylation (biotinyl-Phe-oxazolone)	self-aminoacylation (biotinyl-Ile-oxazolone)	self-aminoacylation (biotinyl-Met-oxazolone)	self-aminoacylation (biotinyl-Val-oxazolone)	self-aminoacylation (biotinyl-Leu-oxazolone)	self-aminoacylation (biotinyl-Trp-oxazolone)
AUUAACCUGGUCAUCGAGCGA [Fam2.1 aminoacylation ribozyme variant]	1.01	1.79	1.88	1.5	1.68	1.37
AUUAACCUGGUCAUCGGGUGA [Fam2.1 aminoacylation ribozyme variant]	53.1	4.26	8.87	4.72	9.83	11
AUUAACCUGGUGAUCGAGUGA [Fam2.1 aminoacylation ribozyme variant]	25.7	3.62	6.03	3.16	6.66	8.53
AUUAAUCUGGUCAUCGAGUGA [Fam2.1 aminoacylation ribozyme variant]	15.6	3.24	4.7	2.88	5.01	6.95
AUUACACAGGUCAUCGAGUGA [Fam2.1 aminoacylation ribozyme variant]	8.1	2.5	3.66	2.44	3.37	5.05
AUUACACGGGUCAUCGAGUGA [Fam2.1 aminoacylation ribozyme variant]	21.7	2.64	4.62	3.1	4.33	5.36
AUUACACUGGCCAUCGAGUGA [Fam2.1 aminoacylation ribozyme variant]	15.9	3.13	6.45	3.07	6.8	5.64
AUUACACUGGUAAUCGAGUGA [Fam2.1 aminoacylation ribozyme variant]	30.4	4.09	7.53	3.38	8.16	8.34
AUUACACUGGUCAUCGAGUUA [Fam2.1 aminoacylation ribozyme variant]	0.876	1.18	1.05	1.02	1.09	1.38
AUUACACUGGUCAUCGGGUGA [Fam2.1 aminoacylation ribozyme variant]	59.4	5.02	9.88	5.51	9.65	9.23
AUUACCAUGGGCAUCGAGUGA [Fam2.1 aminoacylation ribozyme variant]	30.7	3	6.01	3.13	6.48	7.88
AUUACCAUGGUCACCGAGUGA [Fam2.1 aminoacylation ribozyme variant]	49.9	3.34	8.17	3.41	9.1	8.6
AUUACCAUGGUCAUAGAGUGA [Fam2.1 aminoacylation ribozyme variant]	37.6	4.13	8.44	3.51	8.72	10
AUUACCAUGGUCAUCCAGUGA [Fam2.1 aminoacylation ribozyme variant]	28.2	3.62	5.96	3.46	6.27	8
AUUACCAUGGUCAUCGAGCGA [Fam2.1 aminoacylation ribozyme variant]	1.04	1.73	2.24	1.79	1.98	1.64
AUUACCAUGGUCAUUGAGUGA [Fam2.1 aminoacylation ribozyme variant]	63.6	5.76	11.8	5.51	12.1	13.8
AUUACCAUGGUCGUCGAGUGA [Fam2.1 aminoacylation ribozyme variant]	0.902	1.21	1.3	1.08	1.25	1.48
AUUACCAUUGUCAUCGAGUGA [Fam2.1 aminoacylation ribozyme variant]	40.4	4.32	7.41	4.25	8.46	10.4
AUUACCCAGGUCAGCGAGUGA [Fam2.1 aminoacylation ribozyme variant]	34.2	3.4	5.2	3.31	5.59	6.47
AUUACCCAGGUCAUCCAGUGA [Fam2.1 aminoacylation ribozyme variant]	24.2	3.13	5.32	3.14	5.76	6.41
AUUACCCAGGUCAUCGAGGGA [Fam2.1 aminoacylation ribozyme variant]	1.52	1.36	1.38	1.37	1.48	1.16
AUUACCCAGGUCAUCGAGUGC [Fam2.1 aminoacylation ribozyme variant]	0.417	0.777	0.643	0.958	0.919	0.852
AUUACCCAGGUCAUCGAGUGU [Fam2.1 aminoacylation ribozyme variant]	2.45	1.65	2.74	2.06	2.71	3.39
AUUACCCAGGUCAUUGAGUGA [Fam2.1 aminoacylation ribozyme variant]	53.1	4.59	8.2	4.36	9.04	10.4
AUUACCCAGGUCCUCGAGUGA [Fam2.1 aminoacylation ribozyme variant]	10.3	2.2	2.79	2.15	3.11	3.69
